From the Human Domainome abundance scans (Beltran et al. 2025)

B1: Histone-lysine N-methyltransferase SETD2, residues 2382 to 2430; numbered along this chain, Q9BYW2 (parent)
chain: SPPKPKTIVLPPNWKTARDPEGKIYYYHVITRQTQWDPPTWESPGDDAS

Variants of: B1
Assay: abundance fitness (aPCA) (normalised: wild type 0, dead -1); higher = more abundant; growth selection in yeast, the domain comes from the species named
Conditions: Homo sapiens

Abundance fitness, by site and new letter:
R32: Y -0.215 | Q -0.022 | K 0.13 | F -0.691 | C -0.357 | I -0.997 | D -0.027 | S -0.363 | L -0.315 | E -0.197 | V -1.01 | H -0.131 | W -0.848 | P -0.617 | M -0.15 | T -1.01 | G -0.173 | A -0.304 | N 0.031
E21: A -0.126 | H -0.737 | V -0.275 | I -0.316 | T -0.229 | Y -0.552 | D -0.136 | W -0.345 | C -0.134 | L -0.487 | F -0.115 | P -0.989 | Q -0.217 | S 0.098 | M -0.059 | G -0.003 | R -0.043 | K 0.134
P38: D -0.836 | A -0.126 | L -0.396 | F -0.143 | H -0.039 | T -0.398 | N -0.651 | Y -0.228 | R -0.251 | G -0.693 | E -0.493 | K -0.121 | I -0.111 | C -0.221 | M -0.043 | W -0.184 | Q -0.255 | V -0.108
T31: N -0.798 | E -0.735 | S -0.131 | Y -0.831 | M -0.862 | H -0.761 | K -0.651 | R -0.502 | A -0.742 | I -0.945 | W -1.06 | L -0.748 | P -0.785 | Q -0.627 | G -0.927 | D -0.724
V29: R -0.428 | M 0.079 | E 0.139 | T 0.145 | H -0.208 | G -0.309 | A 0.011 | N -0.644 | L -0.287 | Q -0.018 | Y -0.258 | C -0.074 | W -0.564 | S -0.002 | K -0.255
Q33: F -0.906 | R -0.318 | V -0.251 | G -0.798 | P -0.904 | M -0.614 | D -0.185 | L -0.411 | E 0.099 | I -0.551 | A -0.149 | W -0.751 | H -0.578 | C -0.251 | N -0.117 | T -0.13 | K -0.401
Y25: S -0.628 | P -0.784 | M -0.56 | Q -0.454 | W -0.907 | D -0.485 | T -0.73 | V -0.395 | I -0.38 | F -0.227 | K -0.569 | C -0.538 | H -0.419 | A -0.642 | L -0.358 | R -0.628 | G -0.844 | N -0.911
I24: G -0.578 | H -0.549 | W -0.123 | A -0.253 | T -0.228 | Y -0.336 | V -0.406
D37: V 0.013 | P -0.48 | Q -0.235 | A -0.049 | E 0.049 | C -0.07 | F -0.68 | M -0.184 | N -0.298 | I 0.005 | R -0.252 | Y -0.314 | T 0.117 | L -0.159 | K -0.061 | W -0.255
W36: A -0.239 | I 0.139 | M -0.382 | L -0.082 | R 0.139 | S 0.171 | H 0.33 | F 0.321 | Y 0.203 | G -0.152 | Q -0.139 | D -0.015 | E -0.027 | T -0.05 | C -0.08 | K -0.006 | V 0.083
T40: G 0.064 | E 0.12 | A 0.15 | F -0.251 | H 0.155 | D -0.342 | C 0.151
K23: G -0.243 | C -0.402 | Y -0.316 | M -0.514 | F -0.619 | V -0.303 | D -0.493 | H -0.686 | T -0.147 | S -0.279 | I -0.447 | Q -0.28 | R 0.029 | A -0.288 | E -0.433 | L -0.457 | W -0.789 | N -0.563
H28: E -0.689 | K -0.971 | Y -0.6 | L -1.09 | S -0.767 | W -1.05 | D -0.213 | Q -0.64 | G -1.01 | R -1.03 | F -0.94 | M -1.01 | V -0.991 | C -0.792 | N 0.023 | A -1.06
Y26: L -0.878 | E -0.981 | Q -0.777 | M -0.694 | V -0.585 | H -0.618 | C -0.853 | S -0.786 | A -0.865 | T -0.637 | P -0.765 | W -0.498 | G -0.934 | I -0.782 | F -0.315 | N -0.517 | D -0.553 | K -0.655
G22: K -0.482 | V -0.782 | E -1.1 | H -0.484 | C -0.882 | L -0.593 | N -0.555 | D -0.128 | I -0.753 | T -1.02 | F -0.733 | R -0.607 | W -0.224 | Q -0.841 | M -0.636 | A -0.844 | S -0.297
P20: R 0.017 | T 0.006 | N -0.008 | Q 0.015 | K 0.122 | S -0.106 | V -0.31 | Y -0.331 | M -0.078 | W -0.367 | I -0.165 | L -0.223
P39: I -0.835 | W -0.987 | V -0.894 | R -0.96 | M -0.908 | T -0.98 | N -0.391 | Q -0.659 | H -0.748 | E -1 | A -0.918 | S -0.719 | L -0.892 | G -1.04 | C -0.812
T34: C -0.109 | G -0.379 | W -0.18 | N -0.493 | I -0.149 | Q -0.111 | M 0.188 | K -0.605 | H -0.059 | Y -0.52 | E -0.394 | L -0.342 | F -0.059 | R 0.109 | V -0.075 | D -0.774 | A -0.296 | P -0.29
Y27: W -0.163 | P -0.898 | R -0.265 | F -0.487 | M -0.339 | T -0.185 | G -0.747 | V -0.173 | D -0.446 | H -0.293 | E -0.3 | S -0.433 | K -0.261 | L -0.534 | Q -0.136 | C -0.543
Q35: G -0.735 | K -0.351 | C -0.337 | L -0.364 | A -0.155 | M -0.074 | P -0.535 | N -0.875 | S -0.062 | H -0.083 | T -0.052 | E -0.547 | V -0.212 | D -0.869 | W -0.722 | F -0.683 | Y -0.489 | I -0.505
I30: L -0.087 | A -0.314 | M -0.19 | R -0.018 | W -0.447 | N -0.046 | H -0.068 | E -0.307 | D -0.21 | S -0.344 | F -0.361 | T -0.013 | G -0.313 | P -0.08 | C -0.498 | K -0.144 | Q -0.268 | Y -0.244
